The values below come from patent US20260029420A1, “ANTI-CB2 ANTIBODIES AND THEIR USE IN A FLOW CYTOMETRY ASSAY TO MEASURE CELL SURFACE CB2 EXPRESSION” (Hoffmann-La Roche Inc., priority 2022, published 2026).

Assay type in all cases: binding
Test [1] deals with T1, cell surface CB2 on B-cells (Homo sapiens, UniProt P34972).
T1 construct: measured in whole blood samples from nine different healthy human volunteers of working-age; endogenous in cells; host or cells: B-cells (and basophils and other leukocytes) in human whole blood
T1 sequence (P34972 whole entry): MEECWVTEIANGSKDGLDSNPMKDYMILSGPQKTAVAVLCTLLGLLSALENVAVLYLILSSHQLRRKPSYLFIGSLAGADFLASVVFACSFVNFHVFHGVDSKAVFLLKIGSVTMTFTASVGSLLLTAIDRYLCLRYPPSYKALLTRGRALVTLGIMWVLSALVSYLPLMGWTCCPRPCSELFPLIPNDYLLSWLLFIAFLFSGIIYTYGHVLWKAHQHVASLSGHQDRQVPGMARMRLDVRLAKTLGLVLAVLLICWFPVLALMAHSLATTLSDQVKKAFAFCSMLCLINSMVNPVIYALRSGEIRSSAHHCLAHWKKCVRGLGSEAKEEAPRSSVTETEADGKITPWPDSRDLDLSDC
The experiment in a line: Flow cytometry detection of baseline cell surface CB2 on B-cells in untreated whole blood. The settings on record: increasing antibody concentrations. Here is the method: FIG. 5A and FIG. 5B: Comparison of different anti-hCB2 antibodies in detecting cell surface CB2 expression on B-cells. FIG. 5A: Flow cytometric analysis with increasing concentrations of hCB2 antibody 1/622 (black dots) and hCB2 clone 352110 (R&D Systems; dark rectangle). A fluorescence minus one (FMO) serves as control as well as the secondary PE labeled antibody alone (0 μg antibody/sample). FIG. 5B: Flow cytometric analysis with increasing concentrations of mouse IgG3 isotype control clone B10 (SBA; open dots), hCB2 antibody 1/622 (black dots), mouse IgG2b isotype control clone 26114 (R&D Systems; open rectangles) and hCB2 clone 352110 (R&D Systems; dark rectangles). The secondary PE labeled antibody alone serves as 0 μg antibody/sample control.
Detection of baseline expression of cell surface CB2 on B-cells was assessed for clone 1/622 and compared to a commercially available hCB2 antibody (R&D Systems; clone 352110) (5). The flow cytometry experiment was performed as described in Example 3 yet using untreated whole blood samples and using increasing concentrations of the respective anti-human CB2 antibody. […]
For determination of cell surface expression of CB2 on B-cells, median fluorescent intensity (MFI) was analyzed by gating around the CD45^+ CD3^− CD14^− CD19^+ B-cells (see gating strategy in FIG. 6A to FIG. 6E) and acquiring a minimum of 2000 events in this gate (FIG. 6F). […]

In test [2] the test system is CHODukx negative. The test is described as follows: Immunoprecipitation from whole cell lysates, negative control. Set-up: key: “−” no signal; “+”-“+++++” signal intensity; “+”-“+++++” signal intensity; “+”-“+++++” signal intensity; “+”-“+++++” signal intensity; “+”-“+++++” signal intensity. To be noted: CHODukx negative lysate. Here is the method: (§1) The positive clones (Table 1) were further characterized by immunofluorescence (IF; Table 2), Western Blot (Table 3, 1) and Immune precipitation (Table 4, 2) on full length hCB2, hCB1, mCB2 stable-transfected CHO-cell lines in addition to the 2 pANITA constructs.
(§2) For immunoprecipitation (IP), whole cell lysates were incubated with the respective antibodies. IP was performed according to established protocols and subsequent western blot as described herein above.

Test [3] has as its target T2, CHO-A2 mCB2 (Mus musculus, UniProt P47936).
T2 construct: expressed in transfected cells
The experiment in a line: Immunoprecipitation from whole cell lysates. On the set-up: key: “−” no signal; “+”-“+++++” signal intensity; “+”-“+++++” signal intensity; “+”-“+++++” signal intensity; “+”-“+++++” signal intensity; “+”-“+++++” signal intensity. The settings on record: CHO-A2 mCB2 lysate. Here is the method:
as §1, §2

Test [4] addresses T3, CHODukx CRE hCB1 Cl.20 (Homo sapiens, UniProt P21554).
T3 construct: expressed in transfected cells
The experiment in a line: Immunoprecipitation from whole cell lysates. Set-up: key: “−” no signal; “+”-“+++++” signal intensity; “+”-“+++++” signal intensity; “+”-“+++++” signal intensity; “+”-“+++++” signal intensity; “+”-“+++++” signal intensity. To be noted: CHODukx CRE hCB1 Cl.20 lysate. Here is the method: as §1, §2

T3 sequence (P21554 whole entry): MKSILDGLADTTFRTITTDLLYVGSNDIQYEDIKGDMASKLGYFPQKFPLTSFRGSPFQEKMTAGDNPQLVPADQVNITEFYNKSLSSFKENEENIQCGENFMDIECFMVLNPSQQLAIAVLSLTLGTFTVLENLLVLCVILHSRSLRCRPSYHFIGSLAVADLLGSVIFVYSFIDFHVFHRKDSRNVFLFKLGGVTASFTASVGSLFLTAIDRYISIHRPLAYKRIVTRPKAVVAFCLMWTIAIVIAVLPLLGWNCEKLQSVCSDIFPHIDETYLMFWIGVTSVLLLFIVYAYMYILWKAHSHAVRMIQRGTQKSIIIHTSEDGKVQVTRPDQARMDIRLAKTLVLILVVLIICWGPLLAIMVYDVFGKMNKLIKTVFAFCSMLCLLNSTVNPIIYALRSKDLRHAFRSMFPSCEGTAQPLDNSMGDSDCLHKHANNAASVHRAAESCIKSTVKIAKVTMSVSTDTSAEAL
T2 sequence (P47936 whole entry): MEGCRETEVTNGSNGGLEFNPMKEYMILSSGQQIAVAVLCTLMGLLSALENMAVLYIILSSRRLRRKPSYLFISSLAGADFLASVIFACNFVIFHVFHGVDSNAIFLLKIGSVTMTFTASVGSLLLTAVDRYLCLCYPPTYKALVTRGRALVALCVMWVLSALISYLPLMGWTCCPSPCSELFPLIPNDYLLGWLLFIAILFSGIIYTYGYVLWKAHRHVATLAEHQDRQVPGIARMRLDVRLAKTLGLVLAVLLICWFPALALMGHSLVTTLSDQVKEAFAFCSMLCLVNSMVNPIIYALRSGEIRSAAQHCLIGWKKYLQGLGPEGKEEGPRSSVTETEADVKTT

B1: hCB2-1/622: murine IgG3 monoclonal anti-human CB2 antibody, VH SEQ ID NO: 1, VL SEQ ID NO: 2, HC SEQ ID NO: 3, LC SEQ ID NO: 4 (antibody)
heavy: EVQLQQSGPELVKPGASVKISCKTSGYTFTEYTMHWVRQSHGKSLEWIGGIDRYNGDTYYNQKFKDKATLTVDRSSSTAYMELRSLTSEDSAVYFCARNGAMDYWGQGISVTVSSATTTAPSVYPLVPGCSDTSGSSVTLGCLVKGYFPEPVTVKWNYGALSSGVRTVSSVLQSGFYSLSSLVTVPSSTWPSQTVICNVAHPASKTELIKRIEPRIPKPSTPPGSSCPPGNILGGPSVFIFPPKPKDALMISLTPKVTCVVVDVSEDDPDVHVSWFVDNKEVHTAWTQPREAQYNSTFRVVSALPIQHQDWMRGKEFKCKVNNKALPAPIERTISKPKGRAQTPQVYTIPPPREQMSKKKVSLTCLVTNFFSEAISVEWERNGELEQDYKNTPPILDSDGTYFLYSKLTVDTDSWLQGEIFTCSVVHEALHNHHTQKNLSRSPGK
light: DVVMTQTPLSLPVSLGDQASISCRSSQSLVHSNGNTYLHWFLQKPGQSPKLLIYKVSIRFSGVPDRFSGSGSGTDFTLKISRVEAEDLGVYFCSQSTHVPPLTFGAGTKLELKRADAAPTVSIFPPSSEQLTSGGASVVCFLNNFYPKDINVKWKIDGSERQNGVLNSWTDQDSKDSTYSMSSTLTLTKDEYERHNSYTCEATHKTSTSPIVKSFNRNEC
As to B1, in test [1], the “Median fluorescence intensity on B-cells” value is “dose-dependent increase”. In addition, the Immunoprecipitation signal intensity entry in test [2], in test [3] and in test [4] was “−” each time.
